# Target: TCR Vβ3.1 on CH7C17 Jurkat cells
# Experiment: fluorescence microscopy of labelled protein on cells
substance,measurement,value
Staphylococcal Enterotoxin B (from UniProt P01552 28-266) (natural protein),MFI at 5 minutes,427
